Test results reported in patent US10058586B2, “Use of human small leucine zipper protein in adipocyte differentiation procedure” (Korea University Research and Business Foundation, priority 2013, dated 2018).

T1: PPARγ2 (Mus musculus, UniProt P37238)
T1 construct: endogenous in cells
T1 sequence (P37238 1-505): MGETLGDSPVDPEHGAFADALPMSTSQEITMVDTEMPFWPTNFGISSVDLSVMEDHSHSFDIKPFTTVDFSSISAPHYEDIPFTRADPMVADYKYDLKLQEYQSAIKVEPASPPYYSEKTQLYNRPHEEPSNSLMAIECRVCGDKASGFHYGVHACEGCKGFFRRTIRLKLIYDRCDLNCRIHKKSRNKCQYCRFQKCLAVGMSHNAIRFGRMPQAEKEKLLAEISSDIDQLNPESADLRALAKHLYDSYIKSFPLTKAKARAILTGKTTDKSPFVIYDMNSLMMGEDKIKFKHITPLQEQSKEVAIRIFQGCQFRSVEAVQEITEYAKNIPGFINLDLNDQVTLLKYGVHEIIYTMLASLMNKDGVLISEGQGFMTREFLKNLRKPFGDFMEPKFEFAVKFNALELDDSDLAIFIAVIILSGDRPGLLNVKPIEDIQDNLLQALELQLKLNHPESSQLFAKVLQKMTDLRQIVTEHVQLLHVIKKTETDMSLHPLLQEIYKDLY


Key:
PPARγ2 [1] = test: GST pull-down / immunoprecipitation of sLZIP and PPARγ2 in transfected 293T cells; format: binding
Description: 293T cells were obtained and washed with cold PBS. The cells were re-suspended in an IP lysis buffer [25 mM of Tris-HCl (pH 7.4), 150 mM of NaCl, 1 mM of EDTA, 1% NP-40 and 5% glycerol, and a protease inhibitor]. A suspension was centrifuged at 16,000×g for 20 minutes at 4° C. Supernatants were collected and incubated with 0.5 μg of appropriate antibodies and 25 μl of protein A/G-agarose or a GST Sepharose 4B bead for 24 hours at 4° C. A protein complex was centrifuged at 1,000×g with a cold IP lysis buffer for 1 minute and washed five times. The final pellet was re-suspended in 50 μl of an SDS-sample buffer containing 5% β-mercaptoethanol and heated for 10 minutes at 100° C. A protein sample was isolated in SDS-PAGE (8 to 10%) and transferred to nitrocellulose membranes. Co-precipitated proteins were detected according to western blotting using specific antibodies.
In order to examine whether the transcriptional activity of PPARγ2 is regulated by interaction with sLZIP, interaction between sLZIP and PPARγ2 was examined. For this purpose, 293T cells were transfected with GST-sLZIP and Myc-PPARγ2. Cell lysates were obtained and GST pull-down analysis was performed using a glutathione 4B bead. A protein complex was analyzed in SDS-PAGE and then immunoblotted with specific antibodies (FIG. 2A). The 293T cells were transfected with GST-PPARγ2 and Flag-sLZIP, and identified according to GST-pull-down analysis (FIG. 2B). PPARγ2 was translated in vitro by a TNT translation system (Promega). His-sLZIP proteins were expressed in BL21 cells using an IPTG-inducement system. Purified His-sLZIP proteins were subjected to His pull-down analysis. Proteins bound to the bead were analyzed in SDS-PAGE, and then immunoblotted with anti-PPARγ2 and anti-His antibodies (FIG. 2C). GFP-PPARγ2 and Flag-sLZIP constructs were expressed in C3H10T1/2 cells, and analyzed using mouse anti-Flag and Texas Red-labeled anti-mouse antibodies under a fluorescence microscope. The nucleus was stained with DAPI (FIG. 2D).
Activation of many nuclear receptors depends on a supplement of coactivators. Therefore, a domain of sLZIP necessary for binding with PPARγ2 was examined. For this purpose, 293T cells were transfected with GST-full length sLZIP (1-354), N-terminal deletion mutant sLZIP (1-228), C-terminal deletion mutant sLZIP (229-354), CC-terminal deletion mutant sLZIP (297-354) and PPARγ2. Cell lysates were obtained and GST pull-down analysis was performed using a glutathione 4B bead. A protein complex was analyzed in SDS-PAGE, and then immunoblotted with specific antibodies (FIG. 3A). 293T cells were transfected with Flag-full length PPARγ2, full length PPARγ2, N-terminal deletion mutant PPARγ2 (1-310), C-terminal deletion mutants PPARγ2 (139-505) and GST-sLZIP. Cell lysates were obtained and GST pull-down analysis was performed. A protein complex was analyzed in SDS-PAGE, and then immunoblotted with anti-GST and anti-Flag antibodies (FIG. 3B).
For this purpose, 293T cells were transfected with GST-PPARγ2 and Flag-sLZIP and were treated or not treated with 10 nM of RZD for 24 hours. Cell lysates were obtained and GST pull-down analysis (FIG. 5A) and immunoprecipitation (FIG. 5B) were performed using a glutathione 4B bead. A protein complex was analyzed in SDS-PAGE, and immunoblotted with anti-GST and anti-Flag antibodies. GST-PARγ2 and Flag-sLZIP were expressed in the 293T cells, and the cells were treated with 10 nM of RZD according to time of day. The cell lysates were GST pull-down analyzed (FIG. 5C). 293T cells were transfected with GST-HDAC3 and Flag-sLZIP, and treated or not treated with 10 nM of RZD for 24 hours. The cell lysates were GST pull-down analyzed (FIG. 5D). Flag-sLZIP was expressed in the 293T cells, and the cells were treated with 10 nM of RZD for 24 hours. Immunoprecipitation analysis of the cell lysates was performed using anti-NCoR1 antibodies. […]

PPARγ2 [2] = target: T1, PPARγ2; test: FABP4-Luc stable C3H10T1/2 cells infected with sLZIP-expressing adenovirus and differentiated into adipocytes; format: cell-based; settings: sLZIP adenovirus, differentiated into adipocytes for 4 days

Molecule | interaction with PPARγ2 (GST pull-down) (PPARγ2 [1]; 293T cells, no ligand) | interaction with PPARγ2 (immunoprecipitation) (PPARγ2 [1]; 293T cells expressing Flag-sLZIP and GST-PPARγ2, ligand treated) | interaction with PPARγ2 (GST pull-down) (PPARγ2 [1]; 293T cells, 10 nM RZD for 24 hours) | time dependence of interaction with PPARγ2 (GST pull-down) (PPARγ2 [1]; 293T cells, 10 nM RZD, time course) | interaction with PPARγ2 (GST pull-down) (PPARγ2 [1]; 293T cells, no ligand, listed as wild type sLZIP) | transcriptional activity of PPARγ2 (relative luciferase activity) (PPARγ2 [2])
N domains of sLZIP: N-terminal deletion mutant of sLZIP, residues 1-228 (protein, left off: a dimerising Fc or GST) MELELDAGDQDLLAFLLEESGDLGTAPDEAVRAPLDWALPLSEVPSDWEVDDLLCSLLSPPASLNILSSSNPCLVHHDHTYSLPRETVSMDLESESCRKEGTQMTPQHMEELAEQEIARLVLTDEEKSLLEKEGLILPETLPLTKTEEQILKRVRRKIRNKRSAQESRRKKKVYVGGLESRVLKYTAQNMELQNKVQLLEEQNLSLLDQLRKLQAMVIEISNKTSSSS | not interacted with PPARγ2 | – | – | – | – | –
sLZIP: human small leucine-zipper protein, isoform of LZIP, 354 amino acids, no transmembrane domain; GenBank FJ263669, SEQ ID NO: 1 (protein, listed as Homo sapiens) MELELDAGDQDLLAFLLEESGDLGTAPDEAVRAPLDWALPLSEVPSDWEVDDLLCSLLSPPASLNILSSSNPCLVHHDHTYSLPRETVSMDLESESCRKEGTQMTPQHMEELAEQEIARLVLTDEEKSLLEKEGLILPETLPLTKTEEQILKRVRRKIRNKRSAQESRRKKKVYVGGLESRVLKYTAQNMELQNKVQLLEEQNLSLLDQLRKLQAMVIEISNKTSSSSMYSSDTRGSLPAEHGVLSRQLRALPSEDPYQLELPALQSEVPKDSTHQWLDGSDCVLQAPGNTSCLLHYMPQAPSAEPPLEWPFPDLFSEPLCRGPILPLQANLTRKGGWLPTGSPSVILQDRYSG | PPARγ2 interacted with sLZIP | PPARγ2 was dissociated from sLZIP | dissociated from PPARγ2 | dissociated from PPARγ2 in a time-dependent manner | interacted with PPARγ2 | the transcriptional activity of PPARγ2 decreased in adipocytes
